This is an account of results in patent US20240409645A1 (DUALYX, published 2024).

Sequences and labels used below:
T1: human IL-2 receptor (IL-2Rα/IL-2Rβ/γc) (human, UniProt P01589 22-272; P14784 27-551; P31785 23-369)
T1 sequence 1: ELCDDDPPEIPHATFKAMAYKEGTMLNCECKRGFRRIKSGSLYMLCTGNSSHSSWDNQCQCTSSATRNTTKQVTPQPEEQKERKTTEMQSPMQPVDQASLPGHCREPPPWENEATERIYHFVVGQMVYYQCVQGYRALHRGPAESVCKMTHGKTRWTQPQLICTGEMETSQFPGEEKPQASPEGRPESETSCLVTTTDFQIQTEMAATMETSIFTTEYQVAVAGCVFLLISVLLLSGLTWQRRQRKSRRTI
T1 sequence 2: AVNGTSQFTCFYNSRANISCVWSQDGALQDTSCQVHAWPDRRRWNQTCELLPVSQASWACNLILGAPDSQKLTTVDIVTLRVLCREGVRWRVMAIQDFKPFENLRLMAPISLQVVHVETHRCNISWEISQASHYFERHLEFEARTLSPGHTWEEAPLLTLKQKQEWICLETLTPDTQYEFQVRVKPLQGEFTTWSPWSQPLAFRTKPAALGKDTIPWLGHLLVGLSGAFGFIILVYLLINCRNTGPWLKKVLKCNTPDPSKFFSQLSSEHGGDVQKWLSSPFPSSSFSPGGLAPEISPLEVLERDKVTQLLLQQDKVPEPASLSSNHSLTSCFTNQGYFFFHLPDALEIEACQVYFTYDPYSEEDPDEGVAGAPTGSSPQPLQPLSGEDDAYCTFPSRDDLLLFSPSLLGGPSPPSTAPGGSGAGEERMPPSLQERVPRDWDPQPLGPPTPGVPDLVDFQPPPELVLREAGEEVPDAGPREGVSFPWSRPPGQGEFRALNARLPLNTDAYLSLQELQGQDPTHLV
T1 sequence 3: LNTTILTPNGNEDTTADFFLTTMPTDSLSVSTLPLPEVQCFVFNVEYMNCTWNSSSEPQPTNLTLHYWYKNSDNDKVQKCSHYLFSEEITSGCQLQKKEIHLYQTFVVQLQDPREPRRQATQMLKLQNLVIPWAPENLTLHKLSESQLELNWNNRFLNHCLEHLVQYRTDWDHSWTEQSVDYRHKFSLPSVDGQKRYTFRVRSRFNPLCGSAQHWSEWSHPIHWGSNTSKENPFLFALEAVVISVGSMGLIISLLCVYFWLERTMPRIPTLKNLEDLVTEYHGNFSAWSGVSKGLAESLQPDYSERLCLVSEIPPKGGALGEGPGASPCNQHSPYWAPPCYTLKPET

B1: DC00081 (other)
chain 1: QVQLVESGGGLVQAGGSLRLSCAASGGTFRTRNMGWFRRAPGKEREFVAAVSWNVDNKLYADSVKGRFTISRDNGRNMVYLQMNSLKPEDTAVYYCAADNIPLSSDMRPTATEYDYWGQGTQVTVSSDKTHTCPPCPAPEAAGGPSVFLFPPKPKDTLMISRTPEVTCVVVDVSHEDPEVKFNWYVDGVEVHNAKTKPREEQYNSTYRVVSVLTVLHQDWLNGKEYKCKVSNKALGAPIEKTISKAKGQPREPQVYTLPPSRDELTKNQVSLTCLVKGFYPSDIAVEWESNGQPENNYKTTPPVLDSDGSFLLYSKLTVDKSRWQQGNVFSCSVMHEALHNHYTQKSLSLSPGK
chain 2: QVQLVESGGGLVQPGGSLRLSCATSGFTFRNNFMSWVRQAPGKGLEWVSTISYGGESTTYAESVKGRFTISRDNAKNTLYLQMNNLKPEDTAVYYCAKATSYDSIRSGSRGQGTQVTVSSGGGGSGGGGSGGGGSQVQLVESGGGLVQAGGSLTLSCAAPGRTFGTDVVGWFRQAPGKEREFVASISRSGDGIYYDDSVKGRFTISRNNAWNTVNLQMNSLKVEDTAVYYCAAGDGWSTYDYWGQGTQVTVSSGGGGSGGGGSGGGGSEVQLVESGGGLVQTGGSLRLSCAASGGTFSRDAMAWFRQVPGKEREFVALISWSGATTNYADSVKGRFAISRDNGKNTVYLQMNRLKPADTAIYYCAADRRPMGSRSYFEPTEYDDWGQGTQVTVSSGGGGSGGGGSGGGGSDKTHTCPPCPAPEAAGGPSVFLFPPKPKDTLMISRTPEVTCVVVDVSHEDPEVKFNWYVDGVEVHNAKTKPREEQYNSTYRVVSVLTVLHQDWLNGKEYKCKVSNKALGAPIEKTISKAKGQPREPQVYTLPPSRDELTKNQVSLTCLVKGFYPSDIAVEWESNGQPENNYKTTPPVLDSDGSFFLYSRLTVDKSRWQQGNVFSCSVMHEALHNHYTQKSLSLSPGK
B2: DC00083 (other)
chain 1: QVQLVESGGGLVQAGGSLRLSCAASGGTFRTRNMGWFRRAPGKEREFVAAVSWNVDNKLYADSVKGRFTISRDNGRNMVYLQMNSLKPEDTAVYYCAADNIPLSSDMRPTATEYDYWGQGTQVTVSSDKTHTCPPCPAPEAAGGPSVFLFPPKPKDTLMISRTPEVTCVVVDVSHEDPEVKFNWYVDGVEVHNAKTKPREEQYNSTYRVVSVLTVLHQDWLNGKEYKCKVSNKALGAPIEKTISKAKGQPREPQVYTLPPSRDELTKNQVSLTCLVKGFYPSDIAVEWESNGQPENNYKTTPPVLDSDGSFLLYSKLTVDKSRWQQGNVFSCSVMHEALHNHYTQKSLSLSPGK
chain 2: QVQLVESGGGLVQAGGSLTLSCAAPGRTFGTDVVGWFRQAPGKEREFVASISRSGDGIYYDDSVKGRFTISRNNAWNTVNLQMNSLKVEDTAVYYCAAGDGWSTYDYWGQGTQVTVSSGGGGSGGGGSGGGGSEVQLVESGGGLVQTGGSLRLSCAASGGTFSRDAMAWFRQVPGKEREFVALISWSGATTNYADSVKGRFAISRDNGKNTVYLQMNRLKPADTAIYYCAADRRPMGSRSYFEPTEYDDWGQGTQVTVSSGGGGSGGGGSGGGGSQVQLVESGGGLVQPGGSLRLSCATSGFTFRNNFMSWVRQAPGKGLEWVSTISYGGESTTYAESVKGRFTISRDNAKNTLYLQMNNLKPEDTAVYYCAKATSYDSIRSGSRGQGTQVTVSSDKTHTCPPCPAPEAAGGPSVFLFPPKPKDTLMISRTPEVTCVVVDVSHEDPEVKFNWYVDGVEVHNAKTKPREEQYNSTYRVVSVLTVLHQDWLNGKEYKCKVSNKALGAPIEKTISKAKGQPREPQVYTLPPSRDELTKNQVSLTCLVKGFYPSDIAVEWESNGQPENNYKTTPPVLDSDGSFFLYSRLTVDKSRWQQGNVFSCSVMHEALHNHYTQKSLSLSPGK
B3: DC00082 (other)
chain 1: QVQLVESGGGLVQAGGSLRLSCAASGGTFRTRNMGWFRRAPGKEREFVAAVSWNVDNKLYADSVKGRFTISRDNGRNMVYLQMNSLKPEDTAVYYCAADNIPLSSDMRPTATEYDYWGQGTQVTVSSDKTHTCPPCPAPEAAGGPSVFLFPPKPKDTLMISRTPEVTCVVVDVSHEDPEVKFNWYVDGVEVHNAKTKPREEQYNSTYRVVSVLTVLHQDWLNGKEYKCKVSNKALGAPIEKTISKAKGQPREPQVYTLPPSRDELTKNQVSLTCLVKGFYPSDIAVEWESNGQPENNYKTTPPVLDSDGSFLLYSKLTVDKSRWQQGNVFSCSVMHEALHNHYTQKSLSLSPGK
chain 2: QVQLVESGGGLVQPGGSLRLSCATSGFTFRNNFMSWVRQAPGKGLEWVSTISYGGESTTYAESVKGRFTISRDNAKNTLYLQMNNLKPEDTAVYYCAKATSYDSIRSGSRGQGTQVTVSSGGGGSGGGGSGGGGSEVQLVESGGGLVQTGGSLRLSCAASGGTFSRDAMAWFRQVPGKEREFVALISWSGATTNYADSVKGRFAISRDNGKNTVYLQMNRLKPADTAIYYCAADRRPMGSRSYFEPTEYDDWGQGTQVTVSSGGGGSGGGGSGGGGSQVQLVESGGGLVQAGGSLTLSCAAPGRTFGTDVVGWFRQAPGKEREFVASISRSGDGIYYDDSVKGRFTISRNNAWNTVNLQMNSLKVEDTAVYYCAAGDGWSTYDYWGQGTQVTVSSGGGGSGGGGSGGGGSDKTHTCPPCPAPEAAGGPSVFLFPPKPKDTLMISRTPEVTCVVVDVSHEDPEVKFNWYVDGVEVHNAKTKPREEQYNSTYRVVSVLTVLHQDWLNGKEYKCKVSNKALGAPIEKTISKAKGQPREPQVYTLPPSRDELTKNQVSLTCLVKGFYPSDIAVEWESNGQPENNYKTTPPVLDSDGSFFLYSRLTVDKSRWQQGNVFSCSVMHEALHNHYTQKSLSLSPGK
B4: DC00085 (other)
chain 1: EVQLVESGGGLVQAGGSLRLSCAASGGSIYTYNMGWFRQAPGKEREFVAGTLWSGGDSVYADFAKGRFTLSRENAKNTLYLQMNSLKPEDTATYYCAIDPLSLTSDWRVDELSSWGKGTLVTVSSDKTHTCPPCPAPEAAGGPSVFLFPPKPKDTLMISRTPEVTCVVVDVSHEDPEVKFNWYVDGVEVHNAKTKPREEQYNSTYRVVSVLTVLHQDWLNGKEYKCKVSNKALGAPIEKTISKAKGQPREPQVYTLPPSRDELTKNQVSLTCLVKGFYPSDIAVEWESNGQPENNYKTTPPVLDSDGSFLLYSKLTVDKSRWQQGNVFSCSVMHEALHNHYTQKSLSLSPGK
chain 2: EVQLVESGGGLVQTGGSLRLSCAASGGTFSRDAMAWFRQVPGKEREFVALISWSGATTNYADSVKGRFAISRDNGKNTVYLQMNRLKPADTAIYYCAADRRPMGSRSYFEPTEYDDWGQGTQVTVSSGGGGSGGGGSGGGGSQVQLVESGGGLVQPGGSLRLSCATSGFTFRNNFMSWVRQAPGKGLEWVSTISYGGESTTYAESVKGRFTISRDNAKNTLYLQMNNLKPEDTAVYYCAKATSYDSIRSGSRGQGTQVTVSSGGGGSGGGGSGGGGSQVQLVESGGGLVQAGGSLTLSCAAPGRTFGTDVVGWFRQAPGKEREFVASISRSGDGIYYDDSVKGRFTISRNNAWNTVNLQMNSLKVEDTAVYYCAAGDGWSTYDYWGQGTQVTVSSGGGGSGGGGSGGGGSDKTHTCPPCPAPEAAGGPSVFLFPPKPKDTLMISRTPEVTCVVVDVSHEDPEVKFNWYVDGVEVHNAKTKPREEQYNSTYRVVSVLTVLHQDWLNGKEYKCKVSNKALGAPIEKTISKAKGQPREPQVYTLPPSRDELTKNQVSLTCLVKGFYPSDIAVEWESNGQPENNYKTTPPVLDSDGSFFLYSRLTVDKSRWQQGNVFSCSVMHEALHNHYTQKSLSLSPGK

Bounds are passed on as bounds.

For the test, the target named is T1, human IL-2 receptor (IL-2Rα/IL-2Rβ/γc). In words: cell-based or functional assay.
As for B1, the “EC50 (nM) pSTAT5, NK, human PBMCs” value was determined as 0.194 nM; the “EC50 (nM) pSTAT5, Treg, human PBMCs” value is under 0.1 pM; the “Fold Max signal (% pSTAT5+) Treg/NK” value was determined as 5 fold; the “Max signal (% pSTAT5+), NK” value was 13.5 % pSTAT5+. Also, the “Max signal (% pSTAT5+), Treg” value is 60.9 % pSTAT5+ and the “fold EC50 NK/Treg” value was over 1940 fold.
Take B2: the “EC50 (nM) pSTAT5, NK, human PBMCs” value was 0.496 nM; the “EC50 (nM) pSTAT5, Treg, human PBMCs” value is under 0.1 pM; the “Fold Max signal (% pSTAT5+) Treg/NK” value was found to be 5 fold; the “Max signal (% pSTAT5+), NK” value is 13 % pSTAT5+. The “Max signal (% pSTAT5+), Treg” value amounted to 64.1 % pSTAT5+ and the “fold EC50 NK/Treg” value was over 4960 fold.
With B3, the “EC50 (nM) pSTAT5, NK, human PBMCs” value stood at 0.0227 nM; the “EC50 (nM) pSTAT5, Treg, human PBMCs” value was 0.848 pM; the “Fold Max signal (% pSTAT5+) Treg/NK” value is 2 fold; the “Max signal (% pSTAT5+), NK” value was 2.11 % pSTAT5+. Besides, the “Max signal (% pSTAT5+), Treg” value stood at 4.57 % pSTAT5+ and the “fold EC50 NK/Treg” value was 27 fold.
B4: the “EC50 (nM) pSTAT5, NK, human PBMCs” value came to 0.663 nM; the “EC50 (nM) pSTAT5, Treg, human PBMCs” value was 0.0313 nM; the “Fold Max signal (% pSTAT5+) Treg/NK” value is 4 fold; the “Max signal (% pSTAT5+), NK” value amounted to 2.19 % pSTAT5+. The “Max signal (% pSTAT5+), Treg” value is 8.49 % pSTAT5+ and the “fold EC50 NK/Treg” value was 21 fold.
